± gives the uncertainty stated by the source.
Experiment: protein stability index of a GFP-peptide fusion (yeast GPS) (PSI 1-4); higher = more stable; sorted into four equal gates, so the index is relative within each strain
Procedure, shortened: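 Plasmids in a pooled yeast library fused tiled 17-residue yeast protein peptides downstream of GFP and also expressed Cherry. Mid-log cultures grown without leucine were sorted into four equal gates by GFP/Cherry fluorescence ratio. Each gate's plasmids were PCR-amplified and Illumina-sequenced, and reads were matched to strains by barcodes. The protein stability index is derived by multiplying each gate's read frequency by its gate number and summing the results.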

| Sequence | protein stability index (doa10∆) | protein stability index (pdr5∆) | protein stability index (san1∆) | protein stability index (ubr1∆) |
| --- | --- | --- | --- | --- |
| IKNVIVSNRVAAPARAG [RPP0] | 1.82 ± 0.13 | 2.44 ± 0.11 | 3 ± 0.14 | 1.96 ± 0.22 |
| IKQDIPIVIIFRALGII [RPB2] | 1.61 ± 0.05 | 1.33 ± 0.037 | 1.48 ± 0.077 | 1.49 ± 0.039 |
| IKQTSDESTIKRIKPNT [ECM29] | 3 ± 0.073 | 3 ± 0.068 | 2.85 ± 0.048 | 2.94 ± 0.059 |
| IKTFFTQKDSARVSPRN [YAR002W/NUP60] | 3.22 ± 0.097 | 3.49 ± 0.1 | 3.18 ± 0.086 | 3.02 ± 0.064 |
| IKTKQMSLKKCQEEVST [SMC2] | 2.48 ± 0.098 | 3.02 ± 0.095 | 3.03 ± 0.088 | 3.27 ± 0.059 |
| ILATNSLRILAKLSERS [YJL039C/NUP192] | 2.39 ± 0.062 | 2.67 ± 0.062 | 2.49 ± 0.085 | 2.67 ± 0.053 |
| ILDCVVTNSMRQTLAPY [YJR042W/NUP85] | 2.29 ± 0.064 | 2.84 ± 0.052 | 2.53 ± 0.05 | 2.6 ± 0.048 |
| ILEFITAAQVANVELTP [RPC34] | 2.68 ± 0.12 | 2.13 ± 0.08 | 2.27 ± 0.095 | 1.53 ± 0.095 |
| ILEHTLFKGTGFNSWEG [PRP8] | 2.42 ± 0.12 | 2.41 ± 0.12 | 3.38 ± 0.13 | 1.64 ± 0.039 |
| ILFELYKIKGRNNSKSV [SRP72] | 2.04 ± 0.068 | 1.92 ± 0.061 | 2.75 ± 0.069 | 1.76 ± 0.062 |
| ILHTKESSNEAKKTIQN [SIR4] | 2.74 ± 0.056 | 2.21 ± 0.058 | 2.73 ± 0.069 | 2.73 ± 0.054 |
| ILKSPHLSKSPADRPQG [SIR4] | 2.43 ± 0.074 | 2.51 ± 0.058 | 2.33 ± 0.056 | 2.37 ± 0.045 |
| ILMGFTLKDNIVVMDCF [RRI1] |  | 1.97 ± 0.084 | 2.74 ± 0.12 | 1.39 ± 0.14 |
| ILNDSLIYHLKDCAEVD [IRR1] | 2.05 ± 0.056 | 2.28 ± 0.06 | 2.02 ± 0.09 | 1.71 ± 0.046 |
| ILNELQPNARALERYDE [SMC1] | 3.3 ± 0.22 | 3.61 ± 0.11 | 3.27 ± 0.078 | 3.49 ± 0.086 |
| ILNINNSTSKNTLLQQQ [SWI1] | 2.37 ± 0.052 | 2.87 ± 0.08 | 2 ± 0.069 | 2.4 ± 0.047 |
| ILNSIPAAANLDALVDC [YJL039C/NUP192] | 2.18 ± 0.074 | 2.72 ± 0.11 | 2.39 ± 0.067 | 2.5 ± 0.12 |
| ILPDSLNLDSLLVDQKQ [SMD1] | 3.29 ± 0.098 | 3.01 ± 0.085 | 3.21 ± 0.074 | 3.09 ± 0.06 |
| ILQYFEKWISSKNSKLS [SIR3] | 2.8 ± 0.15 | 1.48 ± 0.087 | 2 ± 0.26 | 1.27 ± 0.083 |
| ILQYSRTWYESFCGFLL [YJR042W/NUP85] | 2.11 ± 0.061 | 1.72 ± 0.049 | 1.39 ± 0.14 | 1.42 ± 0.067 |
| ILRKPGKDCKLQNLQRI [RRI2] | 3.12 ± 0.094 | 3.47 ± 0.14 | 3.14 ± 0.096 | 3.07 ± 0.13 |
| ILRQRGPGFKFVDLNEK [SRB4] | 2.57 ± 0.11 | 1.64 ± 0.076 | 1.44 ± 0.21 | 1.75 ± 0.079 |
| ILRRQAILRQQQQMANN [GAL11] | 2.49 ± 0.15 | 3.02 ± 0.16 | 2.62 ± 0.18 | 2.65 ± 0.13 |
| ILVGGTLKDYQIKGLQW [SNF2] | 2.99 ± 0.076 | 2.83 ± 0.077 | 3.01 ± 0.056 | 3.16 ± 0.047 |
| ILYGPPGTGKTLLARAV [RPT6] | 3.4 ± 0.16 | 3.09 ± 0.23 | 3.35 ± 0.16 | 2.95 ± 0.21 |
| ILYTSKIVFILDSDSEN [RRI2] | 1.76 ± 0.065 | 1.88 ± 0.047 | 1.43 ± 0.09 | 1.71 ± 0.037 |

| Sequence | protein stability index (doa10∆) | protein stability index (pdr5∆) | protein stability index (san1∆) | protein stability index (ubr1∆) |
| --- | --- | --- | --- | --- |
| IMFNHARIIRSELLARD [RGR1] | 1.58 ± 0.11 | 2.17 ± 0.14 | 2.62 ± 0.14 | 2.55 ± 0.086 |
| IMLLQLELGSCFSQENI [SIN4] | 1.64 ± 0.046 | 1.87 ± 0.047 | 2.52 ± 0.067 | 2.27 ± 0.062 |
| INAVLVNDNDERAARVV [RPO31] | 2.88 ± 0.12 | 3.04 ± 0.13 | 2.94 ± 0.097 | 2.56 ± 0.084 |
| INDNNTRPYILERARDV [YCG1] | 3.6 ± 0.23 |  |  |  |
| INGEPSIHVNRVERSSR [RRI1] | 2.99 ± 0.078 | 3.01 ± 0.067 | 3.1 ± 0.053 | 3.1 ± 0.051 |
| INHEDGFIETTELLNIY [RPN3] | 2.97 ± 0.079 | 2.93 ± 0.1 | 3.09 ± 0.072 | 3.19 ± 0.066 |
| INIAQMSACVGQQSVEG [RPO21] |  |  | 3.22 ± 0.17 | 3.07 ± 0.1 |
| INIQKYNNNTIRKLLEK [CSI1] | 2.85 ± 0.25 | 2.51 ± 0.17 |  | 2.54 ± 0.11 |
| INKLMEKDFQVNKEIKP [SIR4] | 3.4 ± 0.083 | 3.31 ± 0.069 | 3.16 ± 0.069 | 3.31 ± 0.057 |
| INLTKVTQKDICILGIL [CSI1] | 2.78 ± 0.07 | 2.83 ± 0.07 | 3.03 ± 0.059 | 3.11 ± 0.15 |
| INSENDYSRKQLGYGKF [NUT1] | 3.46 ± 0.26 |  |  | 3.17 ± 0.22 |
| INSGTNSANGSSLNGTN [SSN3] | 2.55 ± 0.056 | 2.75 ± 0.055 | 2.82 ± 0.05 | 2.7 ± 0.041 |
| INVVIKASRKSVGLPSK [ECM29] | 1.27 ± 0.089 | 1.7 ± 0.074 | 1.95 ± 0.24 | 1.26 ± 0.13 |
| IPDIGDLPDTEGLELLG [PRP8] | 3.08 ± 0.14 | 3.15 ± 0.15 | 3.35 ± 0.063 | 3.29 ± 0.046 |
| IPGEYVTYALSGYVRSR [RPS21A] | 2.18 ± 0.29 |  | 2.61 ± 0.21 | 2.92 ± 0.16 |
| IPHIFYSLHQIRKDPNN [CSE2] | 2.7 ± 0.11 | 2.61 ± 0.071 | 2.5 ± 0.058 | 2.67 ± 0.042 |
| IPPLNKSLAMEHKSQVV [CSN12] | 1.26 ± 0.063 | 1.63 ± 0.078 | 1.49 ± 0.12 | 1.35 ± 0.071 |
| IPSAAFNFFEPIKEAKI [YMR129W/POM152] | 1.98 ± 0.039 | 2.27 ± 0.037 | 2.15 ± 0.044 | 2.44 ± 0.025 |
| IQDTLRTGSQSPPSSSQ [MED7] | 2.81 ± 0.044 | 2.91 ± 0.05 | 2.77 ± 0.043 | 2.89 ± 0.032 |
| IQEFQGNPYIELNQDRL [SNF5] | 3.13 ± 0.059 | 3.15 ± 0.07 | 3.24 ± 0.06 | 3.23 ± 0.04 |
| IQGFYWAVKEGPLAEEP [SNU114] | 1.58 ± 0.089 | 1.35 ± 0.086 | 1.27 ± 0.21 | 1.22 ± 0.04 |
| IQHIAAAMVPFIKFKLI [CDC53] | 2.42 ± 0.048 | 2.42 ± 0.043 | 2.42 ± 0.056 | 2.43 ± 0.048 |
| IQLPASLAATYSMISLQ [ARP9] | 1.73 ± 0.088 | 2.01 ± 0.074 | 2.29 ± 0.1 | 2.19 ± 0.053 |
| IQLQEFLLSAMTMASKS [NSL1] | 1.5 ± 0.058 | 1.83 ± 0.1 | 1.81 ± 0.09 | 1.93 ± 0.059 |
| IQNDEEYDTPALFFDPS [PRP8] | 2.76 ± 0.073 | 3.05 ± 0.056 | 2.73 ± 0.085 | 2.86 ± 0.071 |
| IQPKNSDDQQEAVELVI [YML103C/NUP188] | 2.85 ± 0.19 |  | 3.4 ± 0.13 | 3.34 ± 0.12 |
